In US20230002480A1:

Columns and labels:
Test in all cases: cell-based or functional assay
[1] = molecular target: HIV-1 Env of pseudovirus TRO.11 (HIV-1)
[2] = molecular target: HIV-1 Env of pseudovirus CNE17 (HIV-1)
[3] = molecular target: HIV-1 Env of pseudovirus HIV-001428-2.42 (HIV-1)
[4] = molecular target: HIV-1 Env of pseudovirus T257-31 (HIV-1)
[5] = molecular target: HIV-1 Env of pseudovirus 1012_11_TC21_3257 (HIV-1)
[6] = molecular target: HIV-1 Env of pseudovirus 1394C9G1(Rev-) (HIV-1)
[7] = molecular target: HIV-1 Env of pseudovirus Q842.d12 (HIV-1)
[8] = molecular target: HIV-1 Env of pseudovirus 7030102001E5(Rev-) (HIV-1)
[9] = molecular target: HIV-1 Env of pseudovirus SC05_8C11_2344 (HIV-1)
[10] = molecular target: HIV-1 Env of pseudovirus QH0692.42 (HIV-1)
[11] = molecular target: HIV-1 Env of pseudovirus HIV-16845-2.22 (HIV-1)
[12] = molecular target: HIV-1 Env of pseudovirus CNE21 (HIV-1)
[13] = molecular target: HIV-1 Env of pseudovirus REJO4541.67 (HIV-1)
[14] = molecular target: HIV-1 Env of pseudovirus 6244_13_B5_4576 (HIV-1)
[15] = molecular target: HIV-1 Env of pseudovirus Ce2060_G9 (HIV-1)
[16] = molecular target: HIV-1 Env of pseudovirus Du172.17 (HIV-1)
[17] = molecular target: HIV-1 Env of pseudovirus THRO4156.18 (HIV-1)
[18] = molecular target: HIV-1 Env of pseudovirus ZM214M.PL15 (HIV-1)
[19] = molecular target: HIV-1 Env of pseudovirus CNE30 (HIV-1)
[20] = molecular target: HIV-1 Env of pseudovirus 1006_11_C3_1601 (HIV-1)
[21] = molecular target: HIV-1 Env of pseudovirus Du422.1 (HIV-1)

10-1074 (antibody) gave an IC50, titer in TZM.bl cells [1] of 0.008 µg/mL, an IC80, titer in TZM.bl cells [1] of 0.057 µg/mL and an IC50, titer in TZM.bl cells [2] of 2.69 µg/mL. The IC80, titer in TZM.bl cells [2] was 13.3 µg/mL, the IC50, titer in TZM.bl cells [3] was 0.044 µg/mL and the IC80, titer in TZM.bl cells [3] was 0.261 µg/mL. The IC50, titer in TZM.bl cells [4] was greater than 50 µg/mL, the IC80, titer in TZM.bl cells [4] was greater than 50 µg/mL and the IC50, titer in TZM.bl cells [5] was 0.008 µg/mL. It also gave an IC80, titer in TZM.bl cells [5] of 0.059 µg/mL, an IC50, titer in TZM.bl cells [6] of 0.05 µg/mL and an IC80, titer in TZM.bl cells [6] of 0.191 µg/mL. It also gave an IC50, titer in TZM.bl cells [7] greater than 50 µg/mL, an IC80, titer in TZM.bl cells [7] greater than 50 µg/mL and an IC50, titer in TZM.bl cells [8] of 0.006 µg/mL. It also gave an IC80, titer in TZM.bl cells [8] of 0.021 µg/mL, an IC50, titer in TZM.bl cells [9] of 0.052 µg/mL and an IC80, titer in TZM.bl cells [9] of 0.123 µg/mL. For the same substance, the IC50, titer in TZM.bl cells [10] was 0.191 µg/mL, the IC80, titer in TZM.bl cells [10] was 0.929 µg/mL and the IC50, titer in TZM.bl cells [11] was 1.17 µg/mL. It also gave an IC80, titer in TZM.bl cells [11] of 5.83 µg/mL, an IC50, titer in TZM.bl cells [12] of 0.067 µg/mL and an IC80, titer in TZM.bl cells [12] of 0.181 µg/mL. It also gave an IC50, titer in TZM.bl cells [13] greater than 50 µg/mL, an IC80, titer in TZM.bl cells [13] greater than 50 µg/mL and an IC50, titer in TZM.bl cells [14] of 0.202 µg/mL. For the same substance, the IC80, titer in TZM.bl cells [14] was 0.922 µg/mL, the IC50, titer in TZM.bl cells [15] was greater than 50 µg/mL and the IC80, titer in TZM.bl cells [15] was greater than 50 µg/mL. For the same substance, the IC50, titer in TZM.bl cells [16] was 0.121 µg/mL, the IC80, titer in TZM.bl cells [16] was 0.43 µg/mL and the IC50, titer in TZM.bl cells [17] was greater than 50 µg/mL. For the same substance, the IC80, titer in TZM.bl cells [17] was greater than 50 µg/mL, the IC50, titer in TZM.bl cells [18] was 0.174 µg/mL and the IC80, titer in TZM.bl cells [18] was 2.37 µg/mL. It also gave an IC50, titer in TZM.bl cells [19] of 0.363 µg/mL, an IC80, titer in TZM.bl cells [19] of 1.2 µg/mL and an IC50, titer in TZM.bl cells [20] of 0.003 µg/mL. The IC80, titer in TZM.bl cells [20] was 0.013 µg/mL, the IC50, titer in TZM.bl cells [21] was 0.045 µg/mL and the IC80, titer in TZM.bl cells [21] was 0.166 µg/mL.
Work on 10E8 (antibody) yielded an IC50, titer in TZM.bl cells [1] of 0.034 µg/mL, an IC80, titer in TZM.bl cells [1] of 0.25 µg/mL and an IC50, titer in TZM.bl cells [2] of 1.11 µg/mL. The IC80, titer in TZM.bl cells [2] was 5.25 µg/mL, the IC50, titer in TZM.bl cells [3] was 0.809 µg/mL and the IC80, titer in TZM.bl cells [3] was 7.3 µg/mL. The IC50, titer in TZM.bl cells [4] was 0.88 µg/mL, the IC80, titer in TZM.bl cells [4] was 5.78 µg/mL and the IC50, titer in TZM.bl cells [5] was 0.244 µg/mL. The IC80, titer in TZM.bl cells [5] was 4.21 µg/mL, the IC50, titer in TZM.bl cells [6] was 0.963 µg/mL and the IC80, titer in TZM.bl cells [6] was 5.33 µg/mL. The IC50, titer in TZM.bl cells [7] was 4.19 µg/mL, the IC80, titer in TZM.bl cells [7] was greater than 10 µg/mL and the IC50, titer in TZM.bl cells [8] was 6.71 µg/mL. For the same substance, the IC80, titer in TZM.bl cells [8] was greater than 10 µg/mL, the IC50, titer in TZM.bl cells [9] was 0.665 µg/mL and the IC80, titer in TZM.bl cells [9] was 2.74 µg/mL. It also gave an IC50, titer in TZM.bl cells [10] of 0.442 µg/mL, an IC80, titer in TZM.bl cells [10] of 4.05 µg/mL and an IC50, titer in TZM.bl cells [11] of 0.068 µg/mL. The IC80, titer in TZM.bl cells [11] was 0.495 µg/mL, the IC50, titer in TZM.bl cells [12] was 1.9 µg/mL and the IC80, titer in TZM.bl cells [12] was greater than 10 µg/mL. It also gave an IC50, titer in TZM.bl cells [13] of 0.203 µg/mL, an IC80, titer in TZM.bl cells [13] of 1.69 µg/mL and an IC50, titer in TZM.bl cells [14] of 0.086 µg/mL. It also gave an IC80, titer in TZM.bl cells [14] of 0.809 µg/mL, an IC50, titer in TZM.bl cells [15] of 3.52 µg/mL and an IC80, titer in TZM.bl cells [15] greater than 10 µg/mL. It also gave an IC50, titer in TZM.bl cells [16] of 0.109 µg/mL, an IC80, titer in TZM.bl cells [16] of 0.837 µg/mL and an IC50, titer in TZM.bl cells [17] of 0.156 µg/mL. For the same substance, the IC80, titer in TZM.bl cells [17] was 0.884 µg/mL, the IC50, titer in TZM.bl cells [18] was 1.96 µg/mL and the IC80, titer in TZM.bl cells [18] was greater than 10 µg/mL. For the same substance, the IC50, titer in TZM.bl cells [19] was 1.56 µg/mL, the IC80, titer in TZM.bl cells [19] was 9.84 µg/mL and the IC50, titer in TZM.bl cells [20] was 0.172 µg/mL. The IC80, titer in TZM.bl cells [20] was 3 µg/mL, the IC50, titer in TZM.bl cells [21] was 0.351 µg/mL and the IC80, titer in TZM.bl cells [21] was 1.88 µg/mL.
